Test results published in paper PMC7854685, “Histone Parylation factor 1 contributes to the inhibition of PARP1 by cancer drugs” (Nature Communications, 2021).
Values joined by “and” are separate entries in the source; they are usually repeats but may differ in a detail not shown here. Equal entries are not always repeated. “Also recorded” adds a separate entry of the source. Where two headings read alike, the source gives them in different places.

B1: HPF1: Histone PARylation factor, protein that binds PARP1 and PARP2 and provides the catalytic base Glu284 (protein)
chain: LRKEVENHYKLSLPEDFYHFWKFCEELDPEKPSDSLSASLGLQLVGPYDILAGKHKTKKKSTGLNFNLHWRFYYDPPEFQTIIIGDNKTQYHMGYFRDSPDEFPVYVGINEAKKNCIIVPNGDNVFAAVKLFLTKKLREITDKKKINLLKNIDEKLTEAARELGYSLEQRTVKMKQRDKKVVTKTFHGAGLVVPVDKNDVGYRELPETDADLKRICKTIVEAASDEERLKAFAPIQEMMTFVQFANDECDYGMGLELGMDLFCYGSHYFHKVAGQLLPLAYNLLKRNLFAEIIEEHLANRSQENIDQLAA
modifications: Alexa647 C2 maleimide label (extent of labeling typically 50-100%); left off: His tag (inferred from the nickel affinity column), end not stated, state not stated
B2: F280A mutant of HPF1: F280A mutant of HPF1 (protein)
chain: LRKEVENHYKLSLPEDFYHFWKFCEELDPEKPSDSLSASLGLQLVGPYDILAGKHKTKKKSTGLNFNLHWRFYYDPPEFQTIIIGDNKTQYHMGYFRDSPDEFPVYVGINEAKKNCIIVPNGDNVFAAVKLFLTKKLREITDKKKINLLKNIDEKLTEAARELGYSLEQRTVKMKQRDKKVVTKTFHGAGLVVPVDKNDVGYRELPETDADLKRICKTIVEAASDEERLKAFAPIQEMMTFVQAANDECDYGMGLELGMDLFCYGSHYFHKVAGQLLPLAYNLLKRNLFAEIIEEHLANRSQENIDQLAA

How the values were obtained:
[1] = biological target: T1, PARP2 (Homo sapiens, UniProt Q9UGN5); assay: Rate of autoPARylation k2[NAD+] (DNA release without PARPi) in presence or absence of HPF1; format: biochemical
T1 construct: Wild-type PARP1 and PARP2 were expressed and purified as previously described; made in house
Experimental: (§1) Next, 10 µL of PARP1 or PARP2 (10 nM) premixed with fluorescein labeled p18mer DNA (5 nM), was added to the various dilutions of PARPi and then incubated for 30 min to ensure complete association. Dissociation of labeled DNA was initiated by addition of 10 µL of NAD^+ (2 mM). All concentrations cited are final concentrations in a volume of 30 µL. […] Kinetic data for a range of different PARPi (20–500 nM) were exported to Prism (GraphPad) and were globally fitted to individual exponentials1 y=y0−y∞*e^−kobsx+y0 with the constraints that y0 (the value of the FP signal at t = 0) and y∞ (the value of the FP signal at t = ∞) are shared for all concentrations of PARPi. […] We emphasize that the same correction is applied to the data for all PARPi.

[2] = biological target: T2, PARP1 (Homo sapiens, UniProt P09874); assay: as above; format: biochemical
T2 construct: Wild-type PARP1 and PARP2 were expressed and purified as previously described; made in house
Experimental: as §1

[3] = biological target: PARP1 - Nuc165 / PARP1 - p18mer complex (Homo sapiens, UniProt P09874); assay: FRET assay of Alexa647-HPF1 binding to Alexa488-PARP1 with p18mer DNA or Nuc165, with or without olaparib; details: for Kd: read-out: KD of HPF1
PARP1 - Nuc165 / PARP1 - p18mer complex, sequence (P09874 whole entry): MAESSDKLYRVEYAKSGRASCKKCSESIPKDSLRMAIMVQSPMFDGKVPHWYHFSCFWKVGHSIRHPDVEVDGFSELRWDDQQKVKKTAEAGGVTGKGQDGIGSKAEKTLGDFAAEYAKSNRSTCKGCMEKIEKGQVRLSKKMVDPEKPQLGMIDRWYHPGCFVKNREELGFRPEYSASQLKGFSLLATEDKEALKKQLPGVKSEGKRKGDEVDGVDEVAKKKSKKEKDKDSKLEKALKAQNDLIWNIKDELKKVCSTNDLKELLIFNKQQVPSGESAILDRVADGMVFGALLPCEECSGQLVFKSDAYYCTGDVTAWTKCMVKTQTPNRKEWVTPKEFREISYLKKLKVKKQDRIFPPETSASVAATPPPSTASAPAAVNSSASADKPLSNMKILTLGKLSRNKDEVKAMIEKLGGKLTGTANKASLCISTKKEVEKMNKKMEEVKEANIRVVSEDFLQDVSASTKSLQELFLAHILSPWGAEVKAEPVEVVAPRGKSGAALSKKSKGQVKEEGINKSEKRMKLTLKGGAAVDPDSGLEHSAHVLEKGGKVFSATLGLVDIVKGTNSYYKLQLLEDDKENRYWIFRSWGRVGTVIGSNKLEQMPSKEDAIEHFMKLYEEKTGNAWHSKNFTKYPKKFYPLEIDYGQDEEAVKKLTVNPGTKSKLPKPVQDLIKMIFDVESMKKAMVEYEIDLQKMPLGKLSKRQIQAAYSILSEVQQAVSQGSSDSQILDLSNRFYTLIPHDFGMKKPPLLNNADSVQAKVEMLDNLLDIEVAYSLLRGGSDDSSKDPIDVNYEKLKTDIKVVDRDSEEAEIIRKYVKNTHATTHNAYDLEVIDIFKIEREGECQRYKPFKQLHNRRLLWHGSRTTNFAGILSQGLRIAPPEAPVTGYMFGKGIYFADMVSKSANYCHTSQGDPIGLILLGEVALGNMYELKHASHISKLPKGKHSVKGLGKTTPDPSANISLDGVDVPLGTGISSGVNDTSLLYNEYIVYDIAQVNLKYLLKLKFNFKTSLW
PARP1 - Nuc165 / PARP1 - p18mer complex, sequence (Q9NWY4 whole entry partner): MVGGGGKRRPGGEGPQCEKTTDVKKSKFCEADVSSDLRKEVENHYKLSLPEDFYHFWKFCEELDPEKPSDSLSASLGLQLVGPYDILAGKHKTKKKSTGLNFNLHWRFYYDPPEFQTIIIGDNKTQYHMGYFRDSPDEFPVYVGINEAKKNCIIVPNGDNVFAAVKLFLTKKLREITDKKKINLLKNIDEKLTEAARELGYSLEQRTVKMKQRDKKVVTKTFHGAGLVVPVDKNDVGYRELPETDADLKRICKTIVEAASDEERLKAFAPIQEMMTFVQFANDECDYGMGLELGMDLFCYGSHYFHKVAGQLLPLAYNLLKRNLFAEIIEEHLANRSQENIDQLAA
Experimental: Excess unincorporated dye from PARP1 was removed by gel filtration chromatography (S-200). The extent of labeling, defined as the ratio of the molar concentration of dye vs. protein, was determined by UV-Vis spectroscopy and was typically 50–100%. […] All concentrations reflect final concentrations in the plate and all samples were diluted in binding buffer. […] Raw fluorescence intensity values were used to correct the FRET signal for the donor bleed-through and for the acceptor direct excitation, as previously described[43].

T2 sequence (P09874 whole entry): as the sequence (P09874 whole entry) above
T1 sequence (Q9UGN5 whole entry): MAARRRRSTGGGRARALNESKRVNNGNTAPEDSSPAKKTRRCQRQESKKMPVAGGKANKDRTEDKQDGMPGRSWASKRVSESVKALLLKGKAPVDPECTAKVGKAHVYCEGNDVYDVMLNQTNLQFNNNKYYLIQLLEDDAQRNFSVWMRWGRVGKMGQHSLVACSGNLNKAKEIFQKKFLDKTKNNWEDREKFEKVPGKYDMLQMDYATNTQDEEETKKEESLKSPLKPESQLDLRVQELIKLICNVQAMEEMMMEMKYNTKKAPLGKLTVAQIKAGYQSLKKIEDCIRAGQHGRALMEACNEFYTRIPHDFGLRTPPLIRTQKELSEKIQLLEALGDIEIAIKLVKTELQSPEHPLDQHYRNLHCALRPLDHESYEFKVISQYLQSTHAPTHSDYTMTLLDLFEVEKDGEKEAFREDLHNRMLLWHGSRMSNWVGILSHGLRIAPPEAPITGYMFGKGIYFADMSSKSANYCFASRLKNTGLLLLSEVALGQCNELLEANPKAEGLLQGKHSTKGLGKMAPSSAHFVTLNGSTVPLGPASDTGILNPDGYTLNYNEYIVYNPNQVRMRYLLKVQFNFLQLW

Molecule	kobs ([1]; PARP2 + HPF1, replicate fits of the fluorescence polarization time traces (time in s) of sheet SuppFig4CD)	kobs(+HPF1) ([1]; PARP2, no PARPi, 2 mM NAD+)	kobs (individual replicates) ([2]; PARP1 +HPF1, no PARPi)	kobs(+HPF1) ([2]; PARP1, no PARPi, 2 mM NAD+)	factor tighter binding to PARP1—Nuc165 than to PARP1—p18mer ([3]; no olaparib)	Kd ([3]; PARP1 – p18mer complex, in the presence of olaparib (1 µM))	Kd ([3]; PARP1—Nuc165 complex, in the presence of olaparib (1 µM))	Kd ([3]; PARP1—Nuc165 complex, no olaparib)	binding to PARP1 – Nuc165 complex ([3]; FRET)
B1	0.09827 and 0.07689 and 0.09446	0.090 ± 0.011 s⁻¹	0.019 and 0.025 and 0.031	0.025 ± 0.006 s⁻¹	5	1200 ± 500 nM	229 ± 55 nM	790 ± 147 nM	–
B2	–	–	–	–	–	–	–	–	does not bind; also recorded: failed to bind
